Experimental data as given in the supplement of paper PMC9170038.

Test system: MS2 coat protein
Assay: apparent KD of MS2 coat protein; designed switch direction (-1 OFF switch, 1 ON switch): -1; higher = weaker reporter binding
Procedure, shortened: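 The buffer was Tris-HCl pH 7.5 with KCl, MgCl2, BSA, DTT, tRNA and Tween-20. In it, SNAP-549-labelled MS2 coat protein was titrated in doubling steps from 0.7 or 1.5 nM to 3 µM over chip-bound RNA switches transcribed by stalled E. coli RNA polymerase on Illumina chips. Apparent KD is the per-design median over clusters of curve fits to normalised fluorescence.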

[1] = Eterna round: R95, input ligand: FMN 200 uM
[2] = Eterna round: R95, input ligand: microRNA oligo, concentration not stated
[3] = Eterna round: R95, input ligand: none
[4] = input ligand: microRNA oligo, concentration not stated

Row | Sequence | apparent KD of MS2 coat protein [1] [nM] | apparent KD of MS2 coat protein [2] [nM] | apparent KD of MS2 coat protein [3] [nM] | apparent KD of MS2 coat protein (input ligand: FMN 200 uM) [nM] | apparent KD of MS2 coat protein (input ligand: none) [nM] | apparent KD of MS2 coat protein [4] [nM]
1 | GUGGAACAUGAGGAUCACCCAUGUGAGGAUAUGUGAGAAGGAUUUGAGAUGGAGAGGGACAGAAGGCACUAGGA [JR_Exclu1_Sub083] (puzzle: Exclusion 1) | 36.3 | 39.4 | 55.8 |  |  | 
2 | UAUUAGCUAGGAUAUACAUGAGGAUCACCCAUGUCACGGGUCCACUCAUCCUAUGCGUGUAGAAGGAGCGACCC [JL Ceriza mod 1] (puzzle: Exclusion 3) |  | 23.6 |  |  |  | 
3 | CCUUUGUCAGGAUAUCAGAACGCGCUCGUAGGGAGCGCAAAUGAGAAGGGACAUGAGGAUCACCCAUGUAAAGA [Gequleon] (puzzle: Exclusion 4) | 204 | 43.6 | 48.2 |  |  | 
4 | GGCCUUCCGCGAGCUUUUUACAUGAGGAUCACCCAUGUGGUUUUUAGUCUUAUCCCGGGCCCGGUGUCGGGCCCGGG [-32.9, -53.8, A 12%] (Eterna round: R97, puzzle: Sensor, turn-off variant 1) |  |  |  | 29.8 | 30.2 | 
5 | UCGAGGUCAGGAUAUACAUGAGGAUCACCCAUGUGGAUGUAAGGUAGGAGAAGAGUAGGUAGAAGGGACGAGAG [JR_Exclu3_Sub049] (puzzle: Exclusion 3) | 46.7 | 37.8 | 55.4 |  |  | 
6 | AUUGAUGUUGAGGAUAUGCAUAUAUUUAUAAAAGCAGAAGGCGAUACAUGAGGAUCACCCAUGUUCAUGGAAGU [JR_E6_Sub094] (puzzle: Exclusion 6) | 46.7 | 35 | 51.3 |  |  | 
7 | CAGGGCAUGCGAGGAUAUAGCAACAUGAGGAUCACCCAUGUAUAAGGGUGUCCAAGGCAUGCGCGCUAGAAGGCGCUGGUUCUC [Gemadi] (Eterna round: R96, puzzle: Exclusion NG 2) |  |  |  | 343 | 116 | 64.6
8 | UUUUACCGAGGAUAUACAUUUUUUUUAUUAUCCUCAUUAUUACAUGAGGAUCACCCAUGUAGAAGGCGGAUUUU [My Design] (puzzle: Exclusion 2) |  | 56.9 |  |  |  | 
9 | GUAUACGAUGAGGAUAUAUGAUAUCAAAGCAUCAUAGAAGGCAUCACAUGAGGAUCACCCAUGUGAUCUUCUUG [Mat - Exclusion 6 - JL Mod - D33] (Eterna round: R97, puzzle: Exclusion 6) |  |  |  | 141 | 31.3 | 
10 | CCUUCUCCACAGGAUAUGCUCAUCUAAUGAUGAGCAGAAGGGUGGACAUGAGGAUCACCCAUGUUUAUCAAUGG [Omei Ex6 D2] (Eterna round: R97, puzzle: Exclusion 6) |  |  |  | 589 | 428 | 
11 | GUACUGAAGCUUUGCUUUAAUCGUACAUGAGGAUCACCCAUGUAGGAUAUGGUAGGCUUUGCUUACCAGAAGGACAGAGUGAUC [JL EXNG3 1.24] (Eterna round: R96, puzzle: Exclusion NG 3) |  |  |  | 217 | 136 | 124
12 | GCCAGAGCAGGAUAUUCAAUAUCACACAUGAGGAUCACCCAUGUCUGGCGAAAGCUAGAGGGAGAAGGGCUCUGGC [Mat - Exclusion 5 - Eli mod - D97] (puzzle: Exclusion 5) | 17.9 | 38.8 | 55.2 |  |  | 
13 | GCAGUAUGAGUUAGGAUAUGAUGAUUUAAAAUAAAUCAGAAGGAACUUGAGGAUCACCCAAGUAAAGAAUUGGU [JR_BMEx4_Sub071] (Eterna round: R97, puzzle: Brourd's mod of Exclusion 4) |  |  |  | 25.3 | 22.1 | 
14 | CUCGGGAGUCAGGAUAUCGGCACAUAUCAAUCACGAGAAGGGACGACAUGAGGAUCACCCAUGUGGGAAAAGAA [Bivetilaza] (puzzle: Exclusion 6) | 92.9 | 38.1 | 41.7 |  |  | 
15 | GCUGGAAAAGGAUAUACAUAACGUGCGUCAGCACGAGACCUACAUGAGGAUCACCCAUGUAGAAGGUUUCCAGC [EX2 #75] (Eterna round: R97, puzzle: Exclusion 2) |  |  |  | 22.8 | 16.8 | 
16 | UCUCUGUGAGGAUAUUGAACGACGCCGCUAACGGGCUUGCACAAGAAGGCACAUGAGGAUCACCCAUGUCCCGA [EX4 B.28] (Eterna round: R97, puzzle: Exclusion 4) |  |  |  | 29.1 | 20.7 | 
17 | GAUUAACAUGAGGAUCACCCAUGUGAGGAUAUGGACUUGCCCACUUACCCUUUAGAGUCUAGAAGGCGCAUCUC [1986#30] (Eterna round: R97, puzzle: Exclusion 1) |  |  |  | 28.7 | 20.8 | 
18 | ACAUGUCAUUGAGGAUAUUGCAAACAUGAGGAUCACCCAUGUAUACGGAUGCUCUUACGUGAGUUCGAGAAGGCGAUGUACAUU [Ex NG2 #91] (Eterna round: R96, puzzle: Exclusion NG 2) |  |  |  | 99.7 | 46.2 | 39.7

Row | Sequence | apparent KD of MS2 coat protein [1] [nM] | apparent KD of MS2 coat protein [2] [nM] | apparent KD of MS2 coat protein [3] [nM] | apparent KD of MS2 coat protein (input ligand: FMN 200 uM) [nM] | apparent KD of MS2 coat protein (input ligand: none) [nM] | apparent KD of MS2 coat protein [4] [nM]
19 | GCAAGCUUAAUCACUAUGAACAUGAGGAUCACCCAUGUAUAAGGUAAUACUUUUGGGCCCUUUAUUACUCGUCUUAU [JR_STOV1_Sub030] (Eterna round: R97, puzzle: Sensor, turn-off variant 1) |  |  |  | 61.3 | 80.3 | 
20 | AACGUGUAAGGAUAUCUGCUUAUGCUCGGCAAUGCACCGAUAGAGAAGGUACAUGAGGAUCACCCAUGUUCCAA [EX4 A.16] (Eterna round: R97, puzzle: Exclusion 4) |  |  |  | 16.7 | 15.8 | 
21 | GAAUAGGCAGGAUAUACAUGAGGAUCACCCAUGUGCCGGCGAAAGGUACGUUCGAAAGGUAGAAGGGCCUAAAC [ChP 13.04.2015 #7] (Eterna round: R96, puzzle: Exclusion 3) |  |  |  | 176 | 41.8 | 36.7
22 | AUAUUAAUAUAGGAUAUCGAAAUUAUUAAUUAUCGAGAAGGAUAAACAUGAGGAUCACCCAUGUGGUAUCAUGG [Mat - Exclusion 6 - JL Mod - D41] (puzzle: Exclusion 6) | 257 | 257 | 328 |  |  | 
23 | AAAUAAUAGAUAAAAUAAAACAUGAGGAUCACCCAUGUGGGAUGUUGAGGGUGAUACAAGCUUUUUGCUCGUCUUAU (puzzle: Sensor v3, turn-off variant 1) | 233 | 45.6 | 271 |  |  | 
24 | UUAAUUAAUUAUAUAAGAUCACAUGAGGAUCACCCAUGUAUAUAGGAUAUCAGCUCGUUUAGAGCUGAGAAGGAUAUACAAUAU [ExNG3/3-B2] (Eterna round: R96, puzzle: Exclusion NG 3) |  |  |  | 41.8 | 209 | 497
25 | AUGAGGUUAGGAUAUACAUGAGGAUCACCCAUGUUGAAAGGUUAGGUAGGCGGAGCUGGUAGAAGGAACGGAGC [JR_Exclu3_Sub056] (puzzle: Exclusion 3) |  | 27.8 |  |  |  | 
26 | AGAUCACAUGAGGAUCACCCAUGUGAGGAUAUAGACUGAAGAGCUUCGGCUCUUCAGUCUAGAAGGCACUAUGA [EX1 #45] (Eterna round: R97, puzzle: Exclusion 1) |  |  |  | 28.9 | 25.9 | 
27 | GCCGGAUAAGUGAGGAUAUACCUAUGGAUACAUAGGUAGAAGGCACAUGAGGAUCACCCAUGUACCUCUCCGGC [JL-BMX4-4.18 Eli mod] (Eterna round: R97, puzzle: Brourd's mod of Exclusion 4) |  |  |  | 87.5 | 14.8 | 
28 | GGUUGCGCAGGAUAUACAUGAGGAUCACCCAUGUGAGAGAAAUAAGUGAGGAAGAAAAGUAGAAGGGCGUGACG [Mat - Exclusion 3 - Mod of Salish D72] (puzzle: Exclusion 3) | 170 | 37.7 | 68.9 |  |  | 
29 | GAAAAGGUAGGAUAUACGAAAAAAAAGGGUAGAAAAAAAACACAUGAGGAUCACCCAUGUAGAAGGACCGAAAG [salish99_ex2_r3_037] (puzzle: Exclusion 2) | 58.5 | 36.8 | 32.7 |  |  | 
30 | UAAUUCGUAGGAUAUACAAAGGGAGAAUGAUUGCGGUCCUGACAUGAGGAUCACCCAUGUAGAAGGAUGAGGGU [Eternabot (L1) Solution 41] (Eterna round: R97, puzzle: Exclusion 2) |  |  |  | 91.9 | 88.6 | 
31 | AGCCCUGCAGGAUAUGCCCGGGAUAACAUGAGGAUCACCCAUGUGACCGAUUGUUAUUCUGCAGAAGGGCAUGGGA [JL-EX5-4.17 ViennaUCT mod] (Eterna round: R97, puzzle: Exclusion 5) |  |  |  | 228 | 235 | 
32 | GCUGGACAAGGAUAUAUAUGACGUGCUUCGGCACGAAGAUCACAUGAGGAUCACCCAUGUAGAAGGUGUCCAGC [E2/8-C2] (Eterna round: R97, puzzle: Exclusion 2) |  |  |  | 594 | 91.8 | 
33 | UUUUAACAUGAGGAUCACCCAUGUGAGGAUAUCGAAAUUUAUAUUAAUAUUAUUUUUACGAGAAGGCACAUUUU [JMF 50] (puzzle: Exclusion 1) |  | 99.2 |  |  |  | 
34 | AGUGGGCUAGGAUAUCGAUGAACUCACAUGAGGAUCACCCAUGUGUCUUUGGUGGGCGCACGAGAAGGAGUAAGAU [Tiorat] (puzzle: Exclusion 5) |  | 36.5 |  |  |  | 
35 | GGGCCCGGUGUGAGGAUAUGCUCGGGUAAAUCUGGGUAGAAGGCACAUGAGGAUCACCCAUGUAAGCCGGGCCC [-34.4, -32.3 kcal, A 23%, 7bis-0] (Eterna round: R97, puzzle: Brourd's mod of Exclusion 4) |  |  |  | 15.2 | 19.3 | 
